Measurements taken from patent US20050196396A1 (GREENVILLE HOSPITAL SYSTEM, published 2005).

Target: T1, KDR (full length, on cells) (human, UniProt P35968 20-1356)
T1 construct: whole, on cells; also called VEGFR2; kinase domain receptor
Experiment: radioligand binding on HUVEC; 125I-KDR (Ig4-7) displaced by unlabeled KDR (Ig4-7)
Description: ¹²⁵I-KDR (Ig4-7) (100,000 cpm=<1 ng) was incubated with HUVEC.
Total binding of KDR (Ig4-7) was also compared between HUVEC and two human breast cancer cell lines that were reported to have KDR expression (T47-D and MCF-7 cell lines) (FIG. 7). Specific binding of KDR (Ig4-7) was approximately 88%.

T1 sequence (P35968 20-1356): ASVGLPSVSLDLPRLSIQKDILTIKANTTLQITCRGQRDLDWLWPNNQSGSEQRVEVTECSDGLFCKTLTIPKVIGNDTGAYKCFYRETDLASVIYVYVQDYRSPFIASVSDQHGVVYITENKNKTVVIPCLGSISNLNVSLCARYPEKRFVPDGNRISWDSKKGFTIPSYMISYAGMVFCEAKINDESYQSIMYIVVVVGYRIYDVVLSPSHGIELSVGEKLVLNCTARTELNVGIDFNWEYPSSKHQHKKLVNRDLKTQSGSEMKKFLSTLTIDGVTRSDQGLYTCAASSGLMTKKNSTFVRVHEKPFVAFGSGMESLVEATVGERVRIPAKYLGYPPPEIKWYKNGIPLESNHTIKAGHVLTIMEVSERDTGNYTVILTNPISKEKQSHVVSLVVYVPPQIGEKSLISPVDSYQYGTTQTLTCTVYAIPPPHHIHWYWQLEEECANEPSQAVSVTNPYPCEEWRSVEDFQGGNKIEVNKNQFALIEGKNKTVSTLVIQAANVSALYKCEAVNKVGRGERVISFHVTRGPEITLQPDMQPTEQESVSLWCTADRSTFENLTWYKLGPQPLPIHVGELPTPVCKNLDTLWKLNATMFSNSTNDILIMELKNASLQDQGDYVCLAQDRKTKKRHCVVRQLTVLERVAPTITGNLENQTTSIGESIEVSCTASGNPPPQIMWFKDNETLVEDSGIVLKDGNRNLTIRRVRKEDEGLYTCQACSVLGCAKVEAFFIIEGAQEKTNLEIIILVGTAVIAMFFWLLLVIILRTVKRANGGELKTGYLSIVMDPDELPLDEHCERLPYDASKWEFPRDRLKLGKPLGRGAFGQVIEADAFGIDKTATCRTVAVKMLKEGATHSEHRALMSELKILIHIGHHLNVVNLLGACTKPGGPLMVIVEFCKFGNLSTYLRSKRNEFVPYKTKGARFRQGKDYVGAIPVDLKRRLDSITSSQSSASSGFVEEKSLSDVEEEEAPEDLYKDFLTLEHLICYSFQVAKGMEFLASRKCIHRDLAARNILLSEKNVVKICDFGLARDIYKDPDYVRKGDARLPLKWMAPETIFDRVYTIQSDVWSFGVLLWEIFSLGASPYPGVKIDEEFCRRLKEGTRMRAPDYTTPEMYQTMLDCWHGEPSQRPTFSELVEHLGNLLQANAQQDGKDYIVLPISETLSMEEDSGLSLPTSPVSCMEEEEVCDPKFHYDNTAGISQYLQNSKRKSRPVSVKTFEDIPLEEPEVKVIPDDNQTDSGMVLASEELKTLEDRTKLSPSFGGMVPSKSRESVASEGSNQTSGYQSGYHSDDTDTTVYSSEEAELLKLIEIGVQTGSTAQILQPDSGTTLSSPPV

EC50: ~10 µg/mL
B1: KDR (Ig4-7) (receptor)
chain: HMFVAFGSGMESLVEATVGERVRIPAKYLGYPPPEIKWYKNGIPLESNHTIKAGHVLTIMEVSERDTGNYTVILTNPISKEKQSHVVSLVVYVPPQIGEKSLISPVDSYQYGTTQTLTCTVYAIPPPHHIHWYWQLEEECANEPSQAVSVTNPYPCEEWRSVEDFQGGNKIEVNKNQFALIEGKNKTVSTLVIQAANVSALYKCEAVNKVGRGERVISFHVTRGPEITLQPDMQPTEQESVSLWCTADRSTFENLTWYKLGPQPLPIHVGELPTPVCKNLDTLWKLNATMFSNSTNDILIMELKNASLQDQGDYVCLAQDRKTKKRHCVVRQLTVLERVAPTITGNLENQTTSIGESIEVSCTASGNPPPQIMWFKDNETLVEDSGIVLKDGNRNLTIRRVRKEDEGLYTCQACSVLGCAKVEAFFIIEGAQEK
modifications: 125I-labeled as tracer (labelled residues not stated); unlabeled as competitor
notes: also called 125I-KDR (Ig4-7); 125I-labeled KDR (Ig4-7)
